In paper PMC7994445:

Tests used:
[1] = target: rabbit skeletal actin filaments (rabbit) (UniProt P68135)
[2] = target: smooth muscle actin filaments (UniProt P62736)
[3] = target: PfActin-1 filaments (Plasmodium falciparum) (UniProt Q8I4X0)

Chain of Full-length phosphorylated smooth muscle myosin (P10587 whole entry, looked up): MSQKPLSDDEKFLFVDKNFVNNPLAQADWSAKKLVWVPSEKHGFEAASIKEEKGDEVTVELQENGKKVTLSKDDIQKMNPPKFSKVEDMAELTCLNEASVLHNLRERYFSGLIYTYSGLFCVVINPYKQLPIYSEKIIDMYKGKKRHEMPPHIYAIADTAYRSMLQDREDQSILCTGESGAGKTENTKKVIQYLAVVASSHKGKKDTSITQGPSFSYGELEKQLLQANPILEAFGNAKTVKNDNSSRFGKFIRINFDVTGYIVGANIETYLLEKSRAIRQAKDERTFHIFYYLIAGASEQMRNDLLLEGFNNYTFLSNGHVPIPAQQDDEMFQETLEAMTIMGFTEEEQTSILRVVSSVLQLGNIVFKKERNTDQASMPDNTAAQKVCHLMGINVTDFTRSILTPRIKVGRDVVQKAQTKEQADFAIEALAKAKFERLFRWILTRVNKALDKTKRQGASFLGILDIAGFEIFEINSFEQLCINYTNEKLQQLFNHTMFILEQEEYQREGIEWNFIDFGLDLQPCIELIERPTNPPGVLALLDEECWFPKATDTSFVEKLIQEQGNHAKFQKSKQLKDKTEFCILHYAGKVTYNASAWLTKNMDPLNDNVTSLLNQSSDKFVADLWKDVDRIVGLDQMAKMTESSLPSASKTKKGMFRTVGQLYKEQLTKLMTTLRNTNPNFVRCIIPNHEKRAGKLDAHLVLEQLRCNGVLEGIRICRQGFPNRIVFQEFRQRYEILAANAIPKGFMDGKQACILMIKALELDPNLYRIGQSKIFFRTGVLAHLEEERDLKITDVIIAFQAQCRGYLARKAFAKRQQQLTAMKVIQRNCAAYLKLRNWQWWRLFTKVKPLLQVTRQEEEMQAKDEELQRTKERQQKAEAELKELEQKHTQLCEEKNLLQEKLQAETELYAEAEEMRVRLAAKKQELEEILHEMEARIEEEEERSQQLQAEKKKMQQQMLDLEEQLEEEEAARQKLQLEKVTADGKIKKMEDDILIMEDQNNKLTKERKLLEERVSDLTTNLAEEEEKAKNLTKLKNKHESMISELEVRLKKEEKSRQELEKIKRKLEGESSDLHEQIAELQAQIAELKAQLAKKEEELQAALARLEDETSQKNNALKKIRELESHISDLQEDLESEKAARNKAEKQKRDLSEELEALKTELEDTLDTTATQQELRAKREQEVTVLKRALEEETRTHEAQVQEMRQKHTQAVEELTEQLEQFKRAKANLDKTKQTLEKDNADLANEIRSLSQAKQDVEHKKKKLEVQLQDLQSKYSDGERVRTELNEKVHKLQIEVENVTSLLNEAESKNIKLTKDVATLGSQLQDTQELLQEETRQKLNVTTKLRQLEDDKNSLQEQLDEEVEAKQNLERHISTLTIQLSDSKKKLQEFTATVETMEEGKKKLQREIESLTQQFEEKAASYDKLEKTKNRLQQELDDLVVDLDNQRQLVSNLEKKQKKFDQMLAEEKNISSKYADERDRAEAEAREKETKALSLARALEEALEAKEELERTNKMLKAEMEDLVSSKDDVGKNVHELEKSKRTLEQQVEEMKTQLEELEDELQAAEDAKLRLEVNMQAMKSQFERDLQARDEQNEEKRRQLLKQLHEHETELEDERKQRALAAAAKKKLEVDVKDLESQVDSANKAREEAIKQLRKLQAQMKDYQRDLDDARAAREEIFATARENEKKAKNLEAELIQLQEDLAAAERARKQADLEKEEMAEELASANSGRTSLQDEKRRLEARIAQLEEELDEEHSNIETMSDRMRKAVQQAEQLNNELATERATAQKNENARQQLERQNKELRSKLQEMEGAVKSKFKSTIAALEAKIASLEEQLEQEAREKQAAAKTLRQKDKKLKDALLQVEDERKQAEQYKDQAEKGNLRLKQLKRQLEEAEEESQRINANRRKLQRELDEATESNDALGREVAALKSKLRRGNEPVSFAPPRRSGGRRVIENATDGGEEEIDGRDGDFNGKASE

Substance | in vitro motility speed, skeletal muscle actin filaments moved by myosin held on the coverslip, 30 °C [1] [µm/s] | in vitro motility speed, smooth muscle actin filaments moved by myosin held on the coverslip, 30 °C [2] [µm/s] | in vitro motility speed, JAS-stabilized PfAct1 filaments moved by myosin held on the coverslip, 30 °C [3] [µm/s] | in vitro motility speed, unstabilized PfAct1 filaments (no JAS) moved by myosin held on the coverslip, 30 °C [3] [µm/s] | in vitro motility speed, skeletal muscle actin filaments moved by myosin adhered to the coverslip, 30 °C [1] [µm/s] | in vitro motility speed, smooth muscle actin filaments moved by myosin adhered to the coverslip, 30 °C [2] [µm/s] | in vitro motility speed, JAS-stabilized PfAct1 filaments moved by myosin adhered to the coverslip, 30 °C [3] [µm/s]
PfMyoA with a C-terminal biotin tag (from UniProt Q8IDR3 1-818) (complex) | 3.85 | 4.21 | 3.55 | 3.98 |  |  | 
Full-length phosphorylated smooth muscle myosin (from UniProt P10587 1-1979) (complex) |  |  |  |  | 0.62 | 0.51 | 0.53
